{"source": "patent US20220056123A1", "about": "“USE OF IL-1BETA BINDING ANTIBODIES” (NOVARTIS AG, priority 2018, published 2022)", "key": {"[1]": {"test_system": "CD34+ blood vessels in trabecular bone", "test": "Bone microvasculature after suppression of IL-1β signalling", "format": "in vivo, BALB/c nude mice and C57BL/6 mice", "description": "FIG. 7. IL-1β in the bone microenvironment stimulates expansion of the bone metastatic niche. Effects of adding 40 pg/ml or 5 ng/ml recombinant IL-1β to MDA-MB-231 or T47D breast cancer cells is shown in (a) and effects on adding 20 pg/ml, 40 pg/ml or 5 ng/ml IL-1B on proliferation of HS5, bone marrow, or OB1, osteoblasts, are shown in b) and c) respectively. (d) IL-1 driven alterations to the bone vasculature was measured following CD34 staining in the trabecular region of the tibiae from 10-12-week old female IL-1R1 knockout mice. […] Data are shown as mean+/−SEM, *=P<0.01, **=P<0.001, ***=P<0.0001.\nFIG. 8. Suppression of IL-1β signalling affects bone integrity and vasculature. […] Data shown are mean+/−SEM, *=P<0.01, **=P<0.001, ***=P<0.0001 compared with control.\nTo model human breast cancer metastasis to human bone implants two human bone discs were implanted subcutaneously into 10-week old female NOD SCID mice (n=10/group) under isofluorane anaesthetic. Mice received an injection of 0.003 mg vetergesic and Septrin was added to the drinking water for 1 week following bone implantation. Mice were left for 4 weeks before injecting 1×10^5 MDA-MB-231 Luc2-TdTomato, MCF7 Luc2 or T47D Luc2 cells in 20% Martigel/79% PBS/1% toluene blue into the two hind mammary fat pads. Primary tumor growth and development of metastases was monitored weekly using an IVIS […] system (Caliper Life Sciences) following sub-cutaneous injection of 30 mg/ml D-luciferin (Invitrogen). On termination of experiments mammary tumors, circulating tumor cells, serum and bone metastases were resected. RNA was processed for downstream analysis by real time PCR, and cell lysates were taken for protein analysis and whole tissue for histology as previously described (Nutter et al., 2014; Ottewell et al., 2014a). […] Tumor cells, serum, and bone were subsequently resected for downstream analysis. Bone metastases were investigated following injection of 5×10^5 MDA-MB-231 GFP (control), MDA-MB-231-IV, MDA-MB-231-IL-1B-positive or MDA-MB-231-IL-1R1-positive cells into the lateral tail vein of 6 to 8-week old female BALB/c nude mice (n=12/group). Tumor growth in bones and lungs was monitored weekly by GFP imaging in live animals. Mice were culled 28 days after tumor cell injection at which timepoint hind limbs, lungs and serum were resected and processed for microcomputed tomography imaging (pCT), histology and ELISA analysis of bone turnover markers and circulating cytokines as described (Holen et al., 2016)."}, "[2]": {"test_system": "locally advanced or metastatic non-small cell lung cancer", "parameters": "species or system human", "details": "in vivo", "from_the_text": "A Randomized, Double-Blind Phase III Study of Pembrolizumab+Platinum-based Chemotherapy with or without Canakinumab as First Line Therapy for Locally Advanced or Metastatic Non-squamous and Squamous Non-small Cell Lung Cancer Subjects The study population includes adult patients with first-line locally advanced stage IIIB (not eligible for definitive chemo-radiation therapy) or stage IV metastatic non-small cell lung cancer (NSCLC), without EGFR mutations or ALK translocation. Only patients who have not previously been treated with any systemic anti-cancer therapy are included, with the exception of neo-adjuvant or adjuvant therapy (if relapse has occurred more than 12 months from the end of that therapy). In addition, subjects should be without known B-RAF mutation or ROS-1 genetic aberrations.\nThe non-randomized safety run-in portion of the study will be done with canakinumab in combination with pembrolizumab and three platinum-based doublet chemotherapies: carboplatin+pemetrexed (patients with non-squamous tumors), cisplatin+pemetrexed (patients with non-squamous tumors), and carboplatin+paclitaxel (patients with either squamous or non-squamous tumor). Non-squamous tumor histology subjects who receive paclitaxel-carboplatin with pembrolizumab in the safety-run-in and achieve stable disease (SD) or better will receive pemetrexed maintenance after completing induction. […] The secondary objectives are to characterize safety and tolerability, pharmacokinetics, immunogenicity, and to assess the preliminary clinical anti-tumor activity. The analysis to determine the recommended phase III dose regimen (RP3R) will be conducted when at least 6 evaluable patients in each of the 3 treatment cohorts have been observed for dose limiting toxicity (DLT) for at least 42 days at the starting dose level to establish the RP3R.\nAt data cut-off, 6 patients (3 in A, 2 in B and 1 in C) of the 30 treated patients, discontinued the study treatment. The primary reason for treatment discontinuation was PD (3 patients in A and 1 patient each in B and C)"}}}
{"substance": "canakinumab: high-affinity, fully human monoclonal antibody of the IgG1/k to interleukin-1β", "values": [{"measurement": "average length of CD34+ blood vessels in trabecular bone", "setting": "[1]; IL-1Ra 1 mg/kg daily (BALB/c nude), canakinumab single dose (C57BL/6), p<0.01", "value": "reduced the average length"}, {"measurement": "endothelin 1 concentration (ELISA)", "setting": "[1]; compared with control, p<0.01", "value": "reduced concentrations"}, {"measurement": "VEGF concentration (ELISA)", "setting": "[1]; compared with control, p<0.01 IL-1R antagonist, p<0.001 canakinumab", "value": "reduced concentrations"}, {"measurement": "AEs leading to discontinuation of one of the study drugs", "setting": "[2]", "value": 3, "unit": "patients"}, {"measurement": "AEs leading to dose interruption: decreased neutrophil count", "setting": "[2]", "value": 3, "unit": "patients"}, {"measurement": "AEs leading to dose interruption: decreased white blood cell count", "setting": "[2]", "value": 1, "unit": "patient"}, {"measurement": "AEs leading to dose interruption: neutropenia", "setting": "[2]", "value": 1, "unit": "patient"}, {"measurement": "AEs leading to dose reduction: myalgia", "setting": "[2]", "value": 1, "unit": "patients"}, {"measurement": "AEs leading to dose reduction: peripheral neuropathy", "setting": "[2]", "value": 2, "unit": "patients"}, {"measurement": "Grade 5 adverse events", "setting": "[2]", "value": "No Grade 5 adverse events were observed"}, {"measurement": "patients with dose limiting toxicity (DLT)", "setting": "[2]", "value": 1, "unit": "patient"}, {"measurement": "patients with grade 3 AEs", "setting": "[2]", "value": 13, "unit": "patients"}, {"measurement": "patients with grade 4 AE", "setting": "[2]", "value": 1, "unit": "patient"}]}
